In PMC3046058 (Molecular Biology of the Cell, 2011):

Target: His/S-tagged OCRL1, full length, recombinant (human, UniProt Q01968 1-901)
Test: pull-down

Chain of His/S-tagged OCRL1, full length, recombinant (Q01968 whole entry): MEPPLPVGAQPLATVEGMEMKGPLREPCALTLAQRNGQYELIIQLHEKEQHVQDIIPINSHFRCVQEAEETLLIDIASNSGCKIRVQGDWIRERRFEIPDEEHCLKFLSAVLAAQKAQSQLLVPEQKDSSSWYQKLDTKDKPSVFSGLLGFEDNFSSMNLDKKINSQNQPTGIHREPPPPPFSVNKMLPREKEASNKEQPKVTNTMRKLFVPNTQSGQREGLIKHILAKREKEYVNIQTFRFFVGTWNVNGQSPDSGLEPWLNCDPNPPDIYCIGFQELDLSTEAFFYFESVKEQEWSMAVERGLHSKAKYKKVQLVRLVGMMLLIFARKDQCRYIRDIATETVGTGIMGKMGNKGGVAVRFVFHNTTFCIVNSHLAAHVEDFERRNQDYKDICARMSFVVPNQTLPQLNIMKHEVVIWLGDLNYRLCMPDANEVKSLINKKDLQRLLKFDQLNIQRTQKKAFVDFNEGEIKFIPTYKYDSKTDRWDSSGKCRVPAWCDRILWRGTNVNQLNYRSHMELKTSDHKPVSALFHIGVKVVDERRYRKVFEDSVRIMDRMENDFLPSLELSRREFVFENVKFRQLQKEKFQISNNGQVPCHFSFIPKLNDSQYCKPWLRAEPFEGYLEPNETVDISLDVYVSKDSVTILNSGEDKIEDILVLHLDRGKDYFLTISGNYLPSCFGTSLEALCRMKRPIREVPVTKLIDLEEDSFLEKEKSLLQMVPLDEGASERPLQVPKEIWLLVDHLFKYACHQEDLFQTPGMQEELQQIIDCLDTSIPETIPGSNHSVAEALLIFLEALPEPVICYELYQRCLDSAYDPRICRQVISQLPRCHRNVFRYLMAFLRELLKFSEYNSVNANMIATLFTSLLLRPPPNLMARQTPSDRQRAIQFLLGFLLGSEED

SFQQRHESLRP [GST APPL1 (aa 403-413), minimal OCRL1 binding domain of APPL1]
binding result: binds
